Sequences and labels used below:
B1: gB-Ecto.H516P.L531E (HSV-1 glycoprotein B ectodomain stabilized in the prefusion conformation) (domain or fragment)
chain: not shown
modifications: N-linked glycans (densities seen at 141, 398, 430 and 674)
B2: PILRα_G78 ectodomain (paired immunoglobulin-like type 2 receptor alpha, HSV-1 gB co-receptor, with R78G) (receptor)
chain: QPSGSTGSGPSYLYGVTQPKHLSASMGGSVEIPFSFYYPWELATAPDVRISWRRGHFHGQSFYSTRPPSIHKDYVNRLFLNWTEGQKSGFLRISNLQKQDQSVYFCRVELDTRSSGRQQWQSIEGTKLSITQAVTTTTQRPSSMTTTWRLSSTTTTTGLRVTQGKRRSDSWHISLETA
B3: PILRα_G78 ectodomain (paired immunoglobulin-like type 2 receptor alpha, HSV-1 gB co-receptor, with R78G) (receptor)
chain: B2 chain
modifications: engineered disulfide A240C-E607C; N-linked glycans (densities seen at 141, 398, 430 and 674)
B4: D48 Fab (Fab, V domains shown)
VH: EVQLVETGGGVVRPGRSLRLSCTTSGFSFSGSAMHWVRQAPGKGLEWVAVISHDGNIIQYHDSVKGRFTISRDNSKNVLLLQMNSLRVDDTAMYYCARDVWLLPATISYAFDFWGQGTMVTVSS
VL: VIWMTQSPPSLSASIGDTVTITCRASQGISNSIAWYQRRPGKAPELLVYAAYRLQSGVPSRLSGSGSGAEYTLTIKNMQPEDFATYYCQQYYDNPLTFGGGTKVEIK
B5: D48 Fab (Fab, V domains shown)
VH: B4 VH
VL: B4 VL
modifications: engineered disulfide A240C-E607C; N-linked glycans (densities seen at 141, 398, 430 and 674)

Targets include SS10; SS55; DL16.
Holding throughout (test): SPR
(SPR reads the build-up and loss of mass on a sensor chip optically.)

In assay [1] the target is T1, gB-Ecto.H516P (HSV-1 glycoprotein B ectodomain with H516P and an appended foldon; postfusion) (HSV-1 KOS strain, UniProt P06437 31-728, H516P, N-linked glycans (densities seen at 141, 398, 430 and 674)).
The target in assay [2] is B1.
Assay [3] has as its target T1, gB-Ecto.H516P (HSV-1 glycoprotein B …). The source holds these as a separate data set.
Assay [4] concerns the target B1. This is another data set of the same source.
Assay [5] deals with T2, gB-Ecto.H516P.L531E.DS (HSV-1 glycoprotein B ectodomain stabilized in the prefusion conformation with the … (HSV-1 KOS strain, UniProt P06437 31-728, H516P | L531E | A240C | E607C)).
Assay [6] has as its target T2, gB-Ecto.H516P.L531E.DS (HSV-1 …). This is another data set of the same source.

A word on the Kd: it is the free concentration of one partner at which half of the binding sites on the other are occupied at equilibrium, for simple one-to-one binding. A higher Kd goes with weaker binding. For orientation: koff means a measure of how fast the partners let go of each other. Low values mean a long-lived complex, high ones a short-lived complex. As for B1, the equilibrium dissociation constant (Kd) with SS10 was found to be 1.03 nM; with SS55, 7.47 nM; with DL16 it was 28.2 nM. The koff came out at 5.6e-05 s⁻¹ with SS10, 0.000208 s⁻¹ in the assay with SS55 and 0.0013 s⁻¹ with DL16.

With B2, the figures for the koff in [1] and in [2] were 0.66 s⁻¹ and 0.34 s⁻¹, respectively. Moreover, the Kd stood at 2000 nM in [3] and 1600 nM in assay [4].

In the case of B3, the koff in assay [5] turned out to be 0.33 s⁻¹. In addition, binding in assay [6] was put at a Kd of 1800 nM.

On to B4, for which the koff in assay [1] was 4.06e-05 s⁻¹; in assay [2], 1.08e-05 s⁻¹. The figures for the Kd in assay [3] and in assay [4] were 0.252 nM and 0.0272 nM, respectively.

In [5], B5 came in with an off-rate (koff) of 2.18e-05 s⁻¹. In assay [6], this molecule came in with a Kd of 0.0827 nM.

Values taken from publication PMC12578645 (2025).
